# Source: US20200408769A1
# Key:
# Test in all cases: cell-based or functional assay
# [1] = target: TM4SF1 (Transmembrane 4 L six family member 1) (human) (UniProt P30408)
# [2] = target: TNFRSF12A (TNF receptor superfamily member 12A) (human) (UniProt Q9NP84)
# [3] = target: SDC1 (Syndecan 1) (human) (UniProt P18827)
# [4] = target: EpCAM (Epithelial Cell Adhesion Molecule) (human) (UniProt P16422)
# UniProt P16422, sequence (P16422 24-314): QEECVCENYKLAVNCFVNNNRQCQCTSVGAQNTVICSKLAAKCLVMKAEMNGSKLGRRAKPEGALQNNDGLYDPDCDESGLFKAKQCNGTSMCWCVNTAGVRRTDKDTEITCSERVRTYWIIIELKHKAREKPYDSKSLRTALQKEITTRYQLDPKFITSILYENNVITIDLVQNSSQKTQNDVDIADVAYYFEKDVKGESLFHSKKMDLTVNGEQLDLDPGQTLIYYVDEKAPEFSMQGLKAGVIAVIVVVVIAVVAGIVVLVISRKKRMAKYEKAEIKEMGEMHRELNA
# UniProt P30408, sequence (P30408 whole entry): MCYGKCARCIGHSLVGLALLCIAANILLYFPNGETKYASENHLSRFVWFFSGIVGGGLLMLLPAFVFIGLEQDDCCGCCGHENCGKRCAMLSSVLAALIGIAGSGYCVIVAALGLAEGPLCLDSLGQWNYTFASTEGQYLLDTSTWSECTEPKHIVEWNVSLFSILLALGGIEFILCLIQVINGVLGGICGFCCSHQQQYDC
# UniProt Q9NP84, sequence (Q9NP84 28-129 limits assumed): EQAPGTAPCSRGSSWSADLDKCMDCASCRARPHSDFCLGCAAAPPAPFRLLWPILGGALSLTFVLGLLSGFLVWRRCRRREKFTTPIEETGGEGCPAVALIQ
# UniProt P18827, sequence (P18827 23-310 L136Q limits assumed): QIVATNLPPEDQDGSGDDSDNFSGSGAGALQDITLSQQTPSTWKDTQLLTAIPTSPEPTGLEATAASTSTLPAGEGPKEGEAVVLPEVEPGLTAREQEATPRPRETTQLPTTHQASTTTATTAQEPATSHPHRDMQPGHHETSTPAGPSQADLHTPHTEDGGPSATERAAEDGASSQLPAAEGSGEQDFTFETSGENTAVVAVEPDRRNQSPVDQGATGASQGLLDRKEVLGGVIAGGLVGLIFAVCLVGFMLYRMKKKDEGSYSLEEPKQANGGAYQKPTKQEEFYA
substance,measurement,setting,value
"anti-TM4SF1 antibody (Human TM4SF1 Phycoerythrin MAb, R&D systems)",PANC1 cell collection ratio [%],[1],66%
same,PC3 cell collection ratio [%],[1],76%
"anti-TNFRSF12A antibody (PE anti-human CD266 (Fn14, TWEAK R) Antibody, Biolegend)",PANC1 cell collection ratio [%],[2],74.1%
same,PC3 cell collection ratio [%],[2],48%
"anti-SDC1 antibody (PE-anti-human SDC1 Antibody, Biolegend)",PC3 cell collection ratio [%],[3],64%
"anti-EpCAM antibody (PE-anti-human EpCAM Antibody, Miltenyi Biotec)",PANC1 cell collection ratio [%],[4],49%
same,PC3 cell collection ratio [%],[4],42%
